The values below come from paper PMC7892824 (2021).

Bridges are numbered along the chain shown (N, C = ends). [ ]: non-standard residue; d: D form. The star is where a group is joined. FITC = O=C1OC2(c3ccc(O)cc3Oc3cc(O)ccc32)c2ccc(NC(=S)*)cc21; S5 = C=CCCC[C@](C)(N)C(=O)O; Ahx = NCCCCCC(=O)O

In test [1] the target is T1, Human full-length (1–192) wild-type BAX (human, UniProt Q07812 1-192). Kind of test: FP; 0.5 uM EO (eltrombopag).
In test [2] the target is T1, Human full-length (1–192) wild-type BAX. In words: FP; 1 uM EO (eltrombopag).
For test [3] the target is unchanged. Kind of test: FP; 0 uM EO.

T1 sequence (Q07812 whole entry): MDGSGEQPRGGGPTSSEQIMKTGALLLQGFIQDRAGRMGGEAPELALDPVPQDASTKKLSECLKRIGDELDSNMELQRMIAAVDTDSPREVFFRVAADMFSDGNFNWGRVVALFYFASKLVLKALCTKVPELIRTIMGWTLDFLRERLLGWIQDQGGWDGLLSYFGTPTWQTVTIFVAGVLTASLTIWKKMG

B1: FITC-BIM–SAHB, fluorescently-labeled hydrocarbon-stapled BIM–BH3 peptide (peptide)
chain: {FITC-Ahx}-EIWIAQELR[S5]IGD[S5]FNAYYA-NH2
modifications: staple 10-14
SMILES: CC[C@H](C)[C@H](NC(=O)[C@H](Cc1c[nH]c2ccccc12)NC(=O)[C@@H](NC(=O)[C@H](CCC(=O)O)NC(=O)CCCCCNC(=S)Nc1ccc2c(c1)C(=O)OC21c2ccc(O)cc2Oc2cc(O)ccc21)[C@@H](C)CC)C(=O)N[C@@H](C)C(=O)N[C@@H](CCC(N)=O)C(=O)N[C@@H](CCC(=O)O)C(=O)N[C@@H](CC(C)C)C(=O)N[C@@H](CCCNC(=N)N)C(=O)N[C@@]1(C)CCCC=CCCC[C@@](C)(C(=O)N[C@@H](Cc2ccccc2)C(=O)N[C@@H](CC(N)=O)C(=O)N[C@@H](C)C(=O)N[C@@H](Cc2ccc(O)cc2)C(=O)N[C@@H](Cc2ccc(O)cc2)C(=O)N[C@@H](C)C(N)=O)NC(=O)[C@H](CC(=O)O)NC(=O)CNC(=O)[C@H]([C@@H](C)CC)NC1=O
As for B1, the Kd in test [1] is 613 nM; in test [2], over 2000 nM; in test [3], 110 nM.
